# Changes are numbered by the printed parent chain.
# B1: 83 (antibody, human IgG1, V domains shown)
# VH: EVQLVESGGGLVQPGGSLRLSCAASGYTFTFYGMNWVRQAPGKGLEWVGWINTYTGEPTYAADFKRRFTFSLDTSKSTAYLQMNSLRAEDTAVYYCAKYPPYDGGSHWYFDVWGQGTLVTVSS
# VL: DIQMTQSPSSLSASVGDRVTITCSASQDISNYLNWYQQKPGKAPKVLIYFTSSLHSGVPSRFSGSGSGTDFTLTISSLQPEDFATYYCQQYSTVPWTFGQGTKVEIKR
# B2: 84 (antibody, human IgG1, V domains shown)
# VH: B1 VH with D103E, G105S
# VL: B1 VL
# B3: T30 K (anti-VEGF IgG) (antibody, V domains shown)
# VH: B1 VH with T30K, F31N, P101H, D103Y, G105S
# VL: DIQMTQSPSSLSASVGDRVTITCSASQDISNYLNWYQQKPGKAPKVLIYFTSSLHSGVPSRFSGSGSGTDFTLTISSLQPEDFATYYCQQYSTVPWTFGQGTKVEIK
# notes: copies: 2 + 2
# B4: H97 A (anti-VEGF IgG) (antibody, V domains shown)
# VH: B1 VH with F31N, P101A, D103Y, G105S
# VL: B3 VL
# notes: copies: 2 + 2
# B5: T30 W (anti-VEGF IgG) (antibody, V domains shown)
# VH: B1 VH with T30W, F31N, P101H, D103Y, G105S
# VL: B3 VL
# notes: copies: 2 + 2
# B6: T28 R (anti-VEGF IgG) (antibody, V domains shown)
# VH: B1 VH with T28R, F31N, P101H, D103Y, G105S
# VL: B3 VL
# notes: copies: 2 + 2
# B7: T30 R (anti-VEGF IgG) (antibody, V domains shown)
# VH: B1 VH with T30R, F31N, P101H, D103Y, G105S
# VL: B3 VL
# notes: copies: 2 + 2
# B8: S100a A (anti-VEGF IgG) (antibody, V domains shown)
# VH: B1 VH with F31N, P101H, D103Y, G105A
# VL: B3 VL
# notes: copies: 2 + 2
# B9: T28 Y (anti-VEGF IgG) (antibody, V domains shown)
# VH: B1 VH with T28Y, F31N, P101H, D103Y, G105S
# VL: B3 VL
# notes: copies: 2 + 2
# B10: N31 H (anti-VEGF IgG) (antibody, V domains shown)
# VH: B1 VH with F31H, P101H, D103Y, G105S
# VL: B3 VL
# notes: copies: 2 + 2
# B11: N31 L (anti-VEGF IgG) (antibody, V domains shown)
# VH: B1 VH with F31L, P101H, D103Y, G105S
# VL: B3 VL
# notes: copies: 2 + 2
# B12: S100a Q (anti-VEGF IgG) (antibody, V domains shown)
# VH: B1 VH with F31N, P101H, D103Y, G105Q
# VL: B3 VL
# notes: copies: 2 + 2
# B13: T30 N (anti-VEGF IgG) (antibody, V domains shown)
# VH: B1 VH with T30N, F31N, P101H, D103Y, G105S
# VL: B3 VL
# notes: copies: 2 + 2
# B14: T28 G (anti-VEGF IgG) (antibody, V domains shown)
# VH: B1 VH with T28G, F31N, P101H, D103Y, G105S
# VL: B3 VL
# notes: copies: 2 + 2
# B15: S100a T (anti-VEGF IgG) (antibody, V domains shown)
# VH: B1 VH with F31N, P101H, D103Y, G105T
# VL: B3 VL
# notes: copies: 2 + 2
# B16: S100a G (anti-VEGF IgG) (antibody, V domains shown)
# VH: B1 VH with F31N, P101H, D103Y
# VL: B3 VL
# notes: copies: 2 + 2
# B17: N31 W (anti-VEGF IgG) (antibody, V domains shown)
# VH: B1 VH with F31W, P101H, D103Y, G105S
# VL: B3 VL
# notes: copies: 2 + 2
# B18: N31 Y (anti-VEGF IgG) (antibody, V domains shown)
# VH: B1 VH with F31Y, P101H, D103Y, G105S
# VL: B3 VL
# notes: copies: 2 + 2
# Biological target: T1, VEGF (R&D systems, Minneapolis, Minn.) (UniProt P15692-4 27-191, limits assumed)
# Experiment: BIAcore SPR
# Description: (§1) RL was kept low to minimize avidity due to the dimeric nature of VEGF. No capture of the antibody was made on the reference surface to serve as a negative control. Subsequently, VEGF was injected to all flow cells at a flow rate of 50 μL/min for two minutes to monitor association followed by a 25-minute flow of HBS-P running buffer (10 mM HEPES, 150 mM sodium chloride, 0.005% P-20, pH 7.4) to monitor the dissociation phase. At each cycle, VEGF, in 6 different concentrations of VEGF ranging between 0 nM and 512 nM and at four-fold increments, was injected over the surface. […] Binding data were fit to the 1:1 Langmuir model to extract binding constants from the BIAevaluate software. Double referencing was applied in each analysis to eliminate background responses from the reference surface and buffer only control. All the binding kinetics data were analyzed at least three separate determinations.
# T1 sequence (P15692 other isoform, or with tags, fused parts or gaps limits assumed): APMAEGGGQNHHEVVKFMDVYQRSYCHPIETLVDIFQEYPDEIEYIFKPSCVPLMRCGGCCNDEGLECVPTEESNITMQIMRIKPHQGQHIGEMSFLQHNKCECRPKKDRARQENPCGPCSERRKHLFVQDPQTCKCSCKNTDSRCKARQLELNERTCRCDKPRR
Kd [nM],koff [s⁻¹],kon [M⁻¹ s⁻¹],Binder
0.106,0.000194,1.88e+06,B1
0.128,0.000182,1.6e+06,B2

# Biological target: T2, human VEGF-A residues 27-191 of Accession #AAV38412 (human, UniProt P15692 27-191)
# T2 construct: range 27-191
# Experiment: BIAcore SPR
# Description: (§2) The binding kinetics and affinity of the antibodies for VEGF (human VEGF-A residues 27-191 of Accession #AAV38412) was determined by using a BIAcore T200 surface plasmon resonance system (BIAcore, GE Healthcare, Piscataway, N.J.). Coupling running buffer was HBS-EP+ running buffer (10 mM HEPES, 150 mM sodium chloride, 3 mM EDTA 0.05% P-20, pH 7.4); assay running buffer was HBS-EP+ with 300 mM sodium chloride and 0.1 mg/mL BSA (Sigma A7906). Polyclonal goat anti-human Fc (Thermo Scientific prod#31125) was first immobilized to the biosensor surface in 10 mM sodium acetate, pH 4.5 using standard BIAcore amine coupling reagents (N-ethyl-N′-dimethylamino-propylcarbodiimide, EDC; N-hydroxysuccinimide, NHS; and ethanolamine HCl, pH 8.5). For binding kinetics assay a series of cycles were performed, each cycle consisted of 1) mAb capture, 2) Ag or buffer injection, 3) dissociation phase and 4) regeneration. Briefly, anti-VEGF antibodies were captured on parallel surfaces at a low flow rate of 10 μL/min. Capture levels were kept low to minimize avidity due to the dimeric nature of VEGF. No capture of the antibody was made on the reference surface to serve for primary referencing and as a negative control. Subsequently, VEGF or buffer only was injected to all flow cells at a flow rate of 80 μL/min for three minutes to monitor association followed by a 20-minute flow of assay rinning buffer at a flow rate of 80 μL/min to monitor dissociation. […] At the end of each cycle the surface was regenerated with 10 mM glycine, pH 1.5 at a flow rate of 60 μL/min in pulses of 60 and 10 sec. Binding data were fit to the 1:1 Langmuir model with mass transport term included using Biacore T200 Evaluation Software to determine the binding constants.
# T2 sequence (P15692 other isoform, or with tags, fused parts or gaps limits assumed): as above
Kd [nM],koff [s⁻¹],kon [M⁻¹ s⁻¹],Binder
0.92,8.53e-05,92800,B3
2.2,0.000451,205000,B4
0.309,5.74e-05,186000,B5
0.675,6.44e-05,95400,B6
0.644,6.76e-05,105000,B7
0.337,7.68e-05,228000,B8
0.52,6.32e-05,122000,B9
0.172,3.17e-05,184000,B10
0.278,6.05e-05,218000,B11
0.451,6.04e-05,134000,B12
0.303,5.14e-05,170000,B13
0.374,4.97e-05,133000,B14
0.197,4.15e-05,211000,B15
0.602,0.000133,221000,B16
0.164,3.42e-05,209000,B17
0.077,1.77e-05,230000,B18

# Biological target: T1, VEGF (R&D systems, Minneapolis, Minn.)
# Experiment: BIAcore SPR, WT/mutant
# Description: as §1
row,Δkoff [fold],Binder
1,1.8,B1
2,1.9,B2

# Biological target: T1, VEGF (R&D systems, Minneapolis, Minn.)
# Experiment: BIAcore SPR, mutant/WT
# Description: as §1
row,Δkon [fold],Binder
1,10.4,B1
2,8.9,B2

# Biological target: T2, human VEGF-A residues 27-191 of …
# Experiment: BIAcore SPR, KD WT/KD mutant
# Description: as §2
row,affinity improvement [fold],Binder
1,0.5,B3
2,0.2,B4
3,1.6,B5
4,0.6,B6
5,1.3,B7
6,1.3,B8
7,1,B9
8,2.5,B10
9,1.8,B11
10,1.1,B12
11,1.7,B13
12,1.3,B14
13,2.2,B15
14,0.8,B16
15,3.1,B17
16,6.6,B18

# Biological target: T1, VEGF (R&D systems, Minneapolis, Minn.)
# Experiment: BIAcore SPR, improvement over WT
# Description: as §1
row,ΔKD [fold],Binder
1,18.6,B1
2,15.3,B2

# Biological target: T3, unlabeled human VEGF (ELISA coat) (human, UniProt P15692-4 27-191, limits assumed)
# Experiment: ELISA 1 hr, EC50 WT/EC50 mutant
# Description: (§3) To detect identified variants binding to antigen, ELISA plates (Nunc-Immuno MaxiSorp plates, Nalge Nunc, Rochester, N.Y.) were coated overnight at 4° C. with unlabeled human VEGF at 1 μg/mL in 0.2 M sodium carbonate-bicarbonate buffer (pH 9.4, Pierce, Rockford, Ill.). The plates were then blocked with SuperBlock Blocking Buffer (Pierce, Rockford, Ill.) for 30 min and washed with Washing Buffer (PBS containing 0.1% Tween 20). All the washing steps were performed for three times. […] The plates were washed and 100 μL of goat anti-human kappa HRP-conjugated antibody (Southern Biotech, Birmingham, Ala.) diluted at 1:1000 in ELISA buffer was added to each well. After 30 minutes of incubation, plates were washed and bound antibodies were detected by addition of TMB 1 Component HRP Microwell substrate (BioFx #TMBW-1000-01). The reaction was terminated by addition of 100 μL/well of 650 nM Stop Reagent for TMB Microwell substrate and the absorbance was measured at 650 nm using a VERSAmax microplate reader (Molecular Devices, Sunnyvale, Calif.). Data were fitted using nonlinear regression with the software […]
# T3 sequence (P15692 other isoform, or with tags, fused parts or gaps limits assumed): as above
row,ELISA 1hr binding [fold],Binder
1,2.5,B3
2,4,B4
3,2.9,B5
4,1.4,B6
5,2.9,B7
6,2.2,B8
7,5.2,B9
8,2.2,B10
9,1.1,B11
10,3.7,B12
11,2.4,B13
12,5.4,B14
13,2.3,B15
14,3.7,B16
15,2.1,B17
16,3,B18

# Biological target: T3, unlabeled human VEGF (ELISA coat)
# Experiment: ELISA overnight, EC50 WT/EC50 mutant
# Description: as §3
row,ELISA o/n binding [fold],Binder
1,3.1,B3
2,3.4,B4
3,4.5,B5
4,1.8,B6
5,3.2,B7
6,2.1,B8
7,3.4,B9
8,1.9,B10
9,1.1,B11
10,3.6,B12
11,4,B13
12,3.9,B14
13,2.7,B15
14,3.7,B16
15,1.3,B17
16,1.5,B18

# From patent US20140154255A1 (AbbVie / Abbott, published 2014)
